# Laboratory results published in patent US20250073355A1, “CD44-BINDING PEPTIDE REAGENTS AND METHODS” (THE REGENTS OF THE UNIVERSITY OF MICHIGAN, priority 2021, published 2025).
# No end group written: not given here. IRDye800 = fluorophore linked at C-terminus via GGGSC linker
# Tests used:
# [1] = biological target: T1, CD44 (Homo sapiens, UniProt P16070); test: Competitive inhibition with unlabeled peptide on SK-Hep1 cells; assay type: cell-based; conditions: competition
# T1 construct: endogenous in cells; host or cells: SK-Hep1 (human HCC cells)
# T1 sequence (P16070 21-742): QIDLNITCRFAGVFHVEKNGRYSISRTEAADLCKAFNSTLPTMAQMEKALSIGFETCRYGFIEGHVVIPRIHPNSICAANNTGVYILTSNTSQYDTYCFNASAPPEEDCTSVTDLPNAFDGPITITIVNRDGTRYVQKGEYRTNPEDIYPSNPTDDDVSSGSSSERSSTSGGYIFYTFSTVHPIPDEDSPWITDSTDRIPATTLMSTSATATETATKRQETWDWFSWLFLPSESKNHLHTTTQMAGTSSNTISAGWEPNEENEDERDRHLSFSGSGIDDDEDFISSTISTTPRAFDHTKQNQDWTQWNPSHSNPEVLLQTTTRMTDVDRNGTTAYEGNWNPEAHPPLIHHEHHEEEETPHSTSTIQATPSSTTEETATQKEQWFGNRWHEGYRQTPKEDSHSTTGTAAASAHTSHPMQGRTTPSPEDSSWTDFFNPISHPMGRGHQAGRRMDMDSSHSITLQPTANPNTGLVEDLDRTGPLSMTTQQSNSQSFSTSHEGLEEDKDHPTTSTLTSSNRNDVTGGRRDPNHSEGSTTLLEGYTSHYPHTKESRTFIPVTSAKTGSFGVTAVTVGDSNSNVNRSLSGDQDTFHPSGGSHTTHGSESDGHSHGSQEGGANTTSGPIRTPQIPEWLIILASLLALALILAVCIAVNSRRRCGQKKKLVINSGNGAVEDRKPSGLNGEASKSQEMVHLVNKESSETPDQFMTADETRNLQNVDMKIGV
# Procedure: (§1) Specific peptide binding to CD44 was further validated using competitive inhibition by adding unlabeled peptide. Approximately […] SK-Hep1 cells were grown to ˜70% confluence on cover glass in triplicate. Unlabeled peptides at concentrations of 0, 10, 20, 40, 80, and 100 μM were incubated with the cells for 30 min at 4° C. The cells were washed with PBS and incubated with 5 μM of the target peptides for another 30 min at 4° C. The cells were washed and fixed with 4% PFA for 8 min. The cells were washed with PBS and mounted with ProLong Gold reagent containing DAPI (Invitrogen).
# [2] = biological target: T2, CD44 (Cluster of differentiation 44) (human, UniProt P16070 21-742); test: confocal microscopy, SK-Hep1 control siRNA against CD44 knockdown cells
# T2 construct: whole, on cells; The target is tied to CD44 by siRNA knockdown in SK-Hep1 cells; also called CD44 on human SK-Hep1 HCC cells
# T2 sequence (P16070 21-742): as above
# [3] = biological target: T2, CD44 (Cluster of differentiation 44); test: confocal microscopy on SK-Hep1 cells
# [4] = biological target: T2, CD44 (Cluster of differentiation 44); test: flow cytometry on SK-Hep1 cells, labeled peptide 0-200 nM, 4 °C, 1 hour
# Procedure: The apparent dissociation constant kd for peptide binding to cells was measured to assess the binding affinity [31]. IRDye800-labeled target peptides were serially diluted in PBS at concentrations of 0, 10, 20, 40, 80, 100, and 200 nM. ˜10⁵ SK-Hep1 cells were incubated with the peptides at 4° C. for 1 hour, washed with cold PBS, and the mean fluorescence intensities were measured using flow cytometry. The equilibrium dissociation constant kd=1/kₐ was calculated by performing a least squares fit of the data to the non-linear equation l=(l₀+lₘₐₓkₐ [X])/(l₀+kₐ[X]). l₀ and lₘₐₓ are the initial and maximum fluorescence intensities, corresponding to no peptide and at saturation, respectively, and [X] represents the concentration of the bound peptide. Prism 5.0 software (GraphPad Inc) was used to calculate kd.
# [5] = biological target: T2, CD44 (Cluster of differentiation 44); test: competition against 5 µM WKG*-IRDye800 on SK-Hep1 cells; third of five concentrations of unlabeled peptide
# Procedure: as §1
# [6] = biological target: T2, CD44 (Cluster of differentiation 44); test: competition against 5 µM WKG*-IRDye800 on SK-Hep1 cells; fourth of five concentrations of unlabeled peptide
# Procedure: as §1
# [7] = biological target: T2, CD44 (Cluster of differentiation 44); test: competition against 5 µM WKG*-IRDye800 on SK-Hep1 cells; fifth of five concentrations of unlabeled peptide
# Procedure: as §1
# [8] = biological target: T2, CD44 (Cluster of differentiation 44); test: competition against 5 µM WKG*-IRDye800 on SK-Hep1 cells; first of five concentrations of unlabeled peptide (series 0, 10, 20, 40, 80, 100 µM; which five not stated)
# Procedure: as §1
# [9] = biological target: T2, CD44 (Cluster of differentiation 44); test: competition against 5 µM WKG*-IRDye800 on SK-Hep1 cells; second of five concentrations of unlabeled peptide
# Procedure: as §1
molecule,measurement,setting,value
WKGWSYLWTQQA [WKG*],change of WKG*-IRDye800 fluorescence intensities with increasing concentrations of unlabeled peptide,[1],decreased significantly
"rabbit anti-CD44 antibody (EPR18668, Abcam)","fold change in fluorescence intensity, siCL relative to siCD441",[2],4.1 fold
same,"fold change in fluorescence intensity, siCL relative to siCD442",[2],3.3 fold
same,"fold change in fluorescence intensity, siCL relative to siCD443",[2],3.1 fold
same,fold change in fluorescence intensity relative to WYK*-IRDye800 (control),[3],5.61 fold
WKGWSYLWTQQAGGGSC-IRDye800 (Synthetic L-amino acid peptide made by Fmoc solid-phase synthesis on rink amide MBHA resin; also called CD44-directed peptide) [WKG*-IRDye800],Kd,[4],43 nM
"WKGWSYLWTQQA (also: may carry GGGSC linker and C-terminal amide, The m/z of 1913.87 printed for WKG* fits the 12-mer plus GGGSC with a C-terminal amide; also called unlabeled peptide) [unlabeled WKG*]",fold change of fluorescence intensity relative to an equal concentration of WYK*,[5],0.36 fold
same,fold change of fluorescence intensity relative to an equal concentration of WYK*,[6],0.12 fold
same,fold change of fluorescence intensity relative to an equal concentration of WYK*,[7],0.1 fold
same,fold change of fluorescence intensity relative to an equal concentration of WYK*,[8],1.02 fold
same,fold change of fluorescence intensity relative to an equal concentration of WYK*,[9],0.61 fold
